{"source": "patent US20190269666A1", "about": "(Eli Lilly, published 2019)", "binders": {"B1": {"name": "LY3300054 (antibody, human IgG1, lambda, V domains shown)", "VH": "QVQLVQSGAEVKKPGSSVKVSCKASGGTFSSYAISWVRQAPGQGLEWMGGIIPIFGTANYAQKFQGRVTITADKSTSTAYMELSSLRSEDTAVYYCARSPDYSPYYYYGMDVWGQGTTVTVSS", "VL": "QSVLTQPPSASGTPGQRVTISCSGSSSNIGSNTVNWYQQLPGTAPKLLIYGNSNRPSGVPDRFSGSKSGTSASLAISGLQSEDEADYYCQSYDSSLSGSVFGGGIKLTVLG", "notes": "Biotinylated antibody was used in the flow cytometry assay; also called anti-PD-L1 antibody"}}, "key": {"[1]": {"target": "T1, biotinylated PD-L1-Fc fusion protein (Homo sapiens (Human), UniProt Q9NZQ7 19-238, limits assumed, biotinylated (sites not given))", "T1 construct": "not shown: Fc part", "T1 sequence (Q9NZQ7 19-238 limits assumed)": "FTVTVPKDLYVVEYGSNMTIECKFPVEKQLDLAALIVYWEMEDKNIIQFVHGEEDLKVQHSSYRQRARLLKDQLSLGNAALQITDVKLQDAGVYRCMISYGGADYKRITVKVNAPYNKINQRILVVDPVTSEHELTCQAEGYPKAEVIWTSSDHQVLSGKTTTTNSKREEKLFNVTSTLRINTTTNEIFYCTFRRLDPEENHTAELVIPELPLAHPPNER", "assay": "blocking ELISA: antibody premixed with biotinylated PD-L1-Fc, plate coated with B7-1-Fc (1 ug/ml, R&D Systems)"}, "[2]": {"target": "T1, biotinylated PD-L1-Fc fusion protein", "assay": "blocking ELISA: antibody premixed with biotinylated PD-L1-Fc (100 ng/well), plate coated with PD-1-Fc (1 ug/ml)"}, "[3]": {"target": "T2, cynomolgus monkey PD-L1-Fc fusion protein (cynomolgus monkey)", "T2 construct": "Soluble analyte in SPR; also called Cyno PD-L1", "assay": "SPR (Biacore T200), antibody immobilized, PD-L1-Fc as analyte, 37 C, 1:1 model", "procedure": "(§1) Immobilization of antibodies of the present invention as ligand on to sensor chip surface is performed at 25° C. […] The analysis is performed at 37° C. The contact time for each sample is 180 seconds at 30 μL/minute. The dissociation time was 240-1500 seconds. The immobilized surface is regenerated for 18 seconds with 0.95 M NaCl/25 mM NaOH at 30 μL/minute, and then stabilized for 30 seconds. Binding kinetics are analyzed using the Biacore T200 Evaluation software (Version 3.0). Data are referenced to a blank flow cell, and the data are fit to a 1:1 binding model."}, "[4]": {"target": "T3, human PD-L1-Fc fusion protein (human, UniProt Q9NZQ7 19-239)", "T3 construct": "treated as one molecule; also called soluble human PD-L1-Fc fusion protein; human PD-L1-Fc (R&D Systems); not shown: Fc part", "T3 sequence (Q9NZQ7 19-239 limits assumed)": "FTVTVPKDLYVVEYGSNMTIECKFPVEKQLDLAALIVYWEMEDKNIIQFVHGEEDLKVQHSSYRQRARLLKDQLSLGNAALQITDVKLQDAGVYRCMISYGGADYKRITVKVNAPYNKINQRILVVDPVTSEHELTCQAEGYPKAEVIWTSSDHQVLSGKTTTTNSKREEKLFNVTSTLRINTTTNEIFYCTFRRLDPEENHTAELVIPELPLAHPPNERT", "assay": "SPR (Biacore T200), antibody immobilized, PD-L1-Fc as analyte, 37 C, 1:1 model", "procedure": "as §1"}, "[5]": {"target": "T4, cell surface PD-L1 on MDA-MB231 cells (human, UniProt Q9NZQ7 19-290)", "T4 construct": "Endogenous PD-L1 of the human cell line; also called cell surface expressed human PD-L1; MDA-MB 231 cells (PD-L1-positive human breast adenocarcinoma cell line)", "T4 sequence (Q9NZQ7 19-290 limits assumed)": "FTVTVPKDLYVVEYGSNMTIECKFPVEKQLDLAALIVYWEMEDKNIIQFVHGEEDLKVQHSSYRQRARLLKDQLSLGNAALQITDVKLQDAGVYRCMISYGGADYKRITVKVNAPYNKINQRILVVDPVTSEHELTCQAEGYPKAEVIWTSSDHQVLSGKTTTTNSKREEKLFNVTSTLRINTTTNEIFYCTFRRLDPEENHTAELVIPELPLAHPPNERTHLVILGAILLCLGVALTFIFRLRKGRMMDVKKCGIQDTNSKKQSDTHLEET", "assay": "flow cytometry on MDA-MB231 cells, biotinylated antibody, streptavidin-PE detection", "procedure": "Plate are centrifuged at 1200 rpm for 5 minutes and supernatant removed. 100 μL of antibody-biotin (serially diluted by 1:4 starting from 10 μg/ml) is added. A total of 6 serial dilutions are evaluated. After incubation at 4° C. for 30 minutes, cells are washed twice with DPBS. 100 μL of detection buffer containing 5 μL streptavidin-PE is added. After incubation at 4° C. for 30 more minutes, plate is centrifuged and washed twice with DPBS. Cells are re-suspended in 200 μL DPBS for FACS analysis."}, "[6]": {"target": "T3, human PD-L1-Fc fusion protein", "assay": "ELISA, plate coated with human PD-L1-Fc (R&D Systems), anti-human IgG F(ab')2-HRP detection", "procedure": "Wells are blocked for 2 hours with blocking buffer (PBS containing 5% nonfat dry milk). Wells are washed three times with PBS containing 0.1% TWEEN®-20. […] After washing, the plate is incubated with 100 μL of goat anti-human IgG F(ab′)2-HRP conjugate (Jackson Immuno Research) at room temperature for 1 hour. The plates are washed and then incubated with 100 μL of 3,3′, 5,5′-tetra-methylbenzidine. The absorbance at 450 nm is read on a microplate reader. The half maximal effective concentration (EC₅₀) is calculated using GraphPad Prism 6 software."}}, "data": [{"binder": "B1", "values": [{"measurement": "IC50", "setting": "[1]", "value": 2.4, "unit": "nM"}, {"measurement": "IC50", "setting": "[2]", "value": 0.95, "unit": "nM"}, {"measurement": "Kd", "setting": "[3]", "value": 0.122, "unit": "nM"}, {"measurement": "koff", "setting": "[3]", "value": 0.000184, "unit": "s⁻¹"}, {"measurement": "kon", "setting": "[3]", "value": "1.51e+06", "unit": "M⁻¹ s⁻¹"}, {"measurement": "Kd", "setting": "[4]", "value": 0.082, "unit": "nM"}, {"measurement": "koff", "setting": "[4]", "value": 0.000114, "unit": "s⁻¹"}, {"measurement": "kon", "setting": "[4]", "value": "1.4e+06", "unit": "M⁻¹ s⁻¹"}, {"measurement": "EC50", "setting": "[5]", "value": 0.14, "unit": "nM"}, {"measurement": "EC50", "setting": "[6]", "value": 0.11, "unit": "nM"}]}]}
